Numbering of substitutions follows the chain as printed. Numbers in names are those of the source. Blank lines part the entries; values can stand above or below the binder they belong to.
Key:
huPD-L1 on H441 cells = molecular target: T1, huPD-L1 on H441 cells (human, UniProt Q9NZQ7 19-290); assay: flow cytometry, % of positive H441 cells (human lung adenocarcinoma cells expressing PD-L1)
T1 construct: whole, on cells; also called H441 cells (expressing huPD-L1)
Experimental: The binding affinity of AVA04 Affimer polypeptides was determined using Flow cytometry on Human lung adenocarcinoma cell line. […] Cells were collected by centrifugation at 300 rpm for 5 min. The cells were resuspended in PBS and 50000 cells per wells were dispatched in a round bottom 96 well plate. Cells were washed with PBS. Affimer and controls were diluted in staining buffer (R&D) in duplicate and added on cells for staining for approximately 60 min at 4±1° c. Cells were washed and the secondary anti-Cystatin A (R&D) was diluted 1:15 in staining buffer (R&D) and added on cells for staining for approximately 40 min at 4±1° c. Cells were washed and the detection antibody A488 anti-Goat (Biolegend) was diluted 1:100 in staining buffer (R&D) and added on cells for staining for approximately 30 min at 4±1° c. Finally, cells were washed, live and dead cells were stained using L/D stain Zombie Aqua (Biolegend) diluted in staining buffer for 10 min at 4±1° c. Cells were washed and fixation buffer (R&D) was added to each well for 10 min at 4±1° C. then PBS with EDTA (Lonza) was added prior reading the plate on the flow cytometer (Guava 12 HT, Millipore). Dead cells were excluded and the fluorescent Green channel (488 nm/525/30) was acquired. Results were analyzed using Incyte and data were plotted using graphpad.

huPD-L1-Fc (R&D Systems) [1] = molecular target: T2, huPD-L1-Fc (R&D Systems) (human, UniProt Q9NZQ7 19-239); assay: competition ELISA: hu PD-1-Fc coated, binder preincubated with 30 ng/ml huPD-L1-Fc; blocked ligand PD-1
T2 construct: Bought from R&D Systems; also called hPDL1-Fc; human PD-L1 Fc antigen
T2 sequence (Q9NZQ7 19-239 limits assumed): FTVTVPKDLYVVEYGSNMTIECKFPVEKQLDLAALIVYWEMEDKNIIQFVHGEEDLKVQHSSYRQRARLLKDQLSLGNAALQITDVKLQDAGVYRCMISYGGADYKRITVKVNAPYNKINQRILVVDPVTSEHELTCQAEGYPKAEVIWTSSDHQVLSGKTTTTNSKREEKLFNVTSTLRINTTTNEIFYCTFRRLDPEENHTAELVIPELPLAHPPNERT
Experimental: Plates were washed 2 times with 150 μl of washing buffer (PBS, Tween 20 0.1%) with a plate washer and saturated with Casein 5% (Sigma) in PBS for 90 minutes at room temperature (25±1° C.) Plates were washed as described previously. […] The reaction was stopped using an acidic solution and plates were read at 450-630 nm. The IC 50 was then calculated using the interpolated non-linear four-parameters standard curve.

huPD-L1-Fc (R&D Systems) [2] = molecular target: T2, huPD-L1-Fc (R&D Systems); assay: Biacore T200, PD-L1-Fc immobilised on CM5, Affimer as analyte, 1:1 Langmuir fit
Experimental: The concentration titration of Affimer monomer was run as analyte with an association time of 150 seconds, followed by a dissociation time of 300 seconds at a flow rate of 30 μl/min. […] The data blank was subtracted and fit to a 1:1 Langmuir binding model (BIAcore evaluation software; GE) to calculate an apparent KD value.

huPD-L1-Fc (R&D Systems) [3] = molecular target: T2, huPD-L1-Fc (R&D Systems); assay: Biacore
huPD-L1-Fc (R&D Systems) [4] = molecular target: T2, huPD-L1-Fc (R&D Systems); assay: Biacore (target not named on the sheet; PD-L1 by the example)

T1 sequence (Q9NZQ7 19-290): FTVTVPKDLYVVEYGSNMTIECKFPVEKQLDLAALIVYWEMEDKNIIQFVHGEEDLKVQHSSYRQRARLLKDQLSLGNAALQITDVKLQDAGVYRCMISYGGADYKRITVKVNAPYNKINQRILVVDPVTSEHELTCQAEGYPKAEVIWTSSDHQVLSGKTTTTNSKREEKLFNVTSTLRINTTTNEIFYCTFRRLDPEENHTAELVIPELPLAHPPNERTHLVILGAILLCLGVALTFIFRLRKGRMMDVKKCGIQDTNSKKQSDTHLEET

B1: AVA04-211 (designed binder)
Affimer polypeptide: MIPRGLSEAKPATPEIQEIVDKVKPQLEEKTNETYGKLEAVQYKTQVLAKDWGPSNWWSTNYYIKVRAGDNKYMHLKVFNGPVDDKTLSKDADRVLTGYQVDKNKDDELTGFAAAGHHHHHH
notes: also called AVA04 clone 211
EC50 (huPD-L1 on H441 cells): 210 pM

B5: AVA04-228 (designed binder)
Affimer polypeptide: MIPRGLSEAKPATPEIQEIVDKVKPQLEEKTNETYGKLEAVQYKTQVLAKPYGPRDWDSTNYYIKVRAGDNKYMHLKVFNGPEPQLDTSPIADRVLTGYQVDKNKDDELTGFAAAGHHHHHH
notes: also called AVA04 clone 228
EC50 (huPD-L1 on H441 cells): 180 pM

B6: AVA04-261 (designed binder)
chain: MIPRGLSEAKPATPEIQEIVDKVKPQLEEKTNETYGKLEAVQYKTQVLAHAYGPRDWDSTNYYIKVRAGDNKYMHLKVFNGPPADHVLEEAADRVLTGYQVDKNKDDELTGFAAAGHHHHHH
EC50 (huPD-L1 on H441 cells): 43 pM

B7: AVA04-141 Monomer His (designed binder)
Affimer polypeptide: MIPRGLSEAKPATPEIQEIVDKVKPQLEEKTNETYGKLEAVQYKTQVLAAAHFPEHFWSTNYYIKVRAGDNKYMHLKVFNGPQPADMSAEFADRVLTGYQVDKNKDDELTGFAAAGHHHHHH
notes: also called Affimer monomer; AVA04 clone 141
IC50 (huPD-L1-Fc (R&D Systems) [1]): 2500 pM | Kd (huPD-L1-Fc (R&D Systems) [2]): 8900 pM | koff (huPD-L1-Fc (R&D Systems) [2]): 0.0251 s⁻¹ | kon (huPD-L1-Fc (R&D Systems) [2]): 2.81e+06 M⁻¹ s⁻¹

Other lines, results leading:

EC50 (huPD-L1 on H441 cells): 40 pM
B2: AVA04-227 (designed binder)
Affimer polypeptide: B1 Affimer polypeptide with W52H, S55I, N56A, V83E, D85T, K86N, L88D, S89G, K90A, D91L
notes: also called AVA04 clone 227

EC50 (huPD-L1 on H441 cells): 10 pM
B3: AVA04-269 (designed binder)
Affimer polypeptide: MIPRGLSEAKPATPEIQEIVDKVKPQLEEKTNETYGKLEAVQYKTQVLAKEYGPEEWWSTNYYIKVRAGDNKYMHLKVFNGPGDYEQVLIHADRVLTGYQVDKNKDDELTGFAAAGHHHHHH
notes: also called AVA04 clone 269

EC50 (huPD-L1 on H441 cells): 9510 pM
B4: AVA04-231 (designed binder)
Affimer polypeptide: MIPRGLSEAKPATPEIQEIVDKVKPQLEEKTNETYGKLEAVQYKTQVLANTWFPESFWSTNYYIKVRAGDNKYMHLKVFNGPDDNQERQEHADRVLTGYQVDKNKDDELTGFAAAGHHHHHH
notes: also called AVA04 clone 231

Kd (huPD-L1-Fc (R&D Systems) [3]): 59.9 pM | koff (huPD-L1-Fc (R&D Systems) [4]): 0.000156 s⁻¹ | kon (huPD-L1-Fc (R&D Systems) [4]): 2.61e+06 M⁻¹ s⁻¹
B8: AVA04-261 BN (designed binder)
chain: MIPRGLSEAKPATPEIQEIVDKVKPQLEEKTNETYGKLEAVQYKTQVLAHAYGPRDWDSTNYYIKVRAGDNKYMHLKVFNGPPADHVLEEAADRVLTGYQVDKNKDDELTGFGGGGSGGGGSGGGGSGGGGSEPKSCDKTHTCPPCPHHHHHH
notes: Affimer - (G4S)4 - human IgG1 hinge - His; dimerises through the hinge cysteines

EC50 (huPD-L1 on H441 cells): 2060 pM
B9: AVA04-251 (designed binder)
chain: MIPRGLSEAKPATPEIQEIVDKVKPQLEEKTNETYGKLEAVQYKTQVLAREGRQDWVLSTNYYIKVRAGDNKYMHLKVFNGPWVPFPHQQLADRVLTGYQVDKNKDDELTGFAAAGHHHHHH

— patent publication US20210163599A1 (AVACTA LIFE SCIENCES, published 2021)
